Data as given in US20260347474 (published 2026).
Numbering of substitutions follows the chain as printed.

B1: P-1153 (antibody, V domains shown)
VH: QVQLVQSGVEVKKPGASVKVSCKASGYTFTNYYMYWVRQAPGQGLEWMGGINPSNGGTNYAQKFQGRVTLTTDSSTTTAYMELKSLQFDDTAVYYCARRDYRFDMGFDYWGQGTTVTVSS
VL: EIVLTQSPATLSLSPGERATLSCRASQGVSTSGYSYLAWYQQKPGQAPRLLIYLASYRASGVPARFSGSGSGTDFTLTISSLEPEDFAVYYCQHSRDLPLTFGGGTKVEIKR
B2: P-1150 (antibody, V domains shown)
VH: B1 VH with Y60F
VL: B1 VL
B3: P-1151 (antibody, V domains shown)
VH: B1 VH
VL: B1 VL with A38H
B4: P-1148 (antibody, V domains shown)
VH: B1 VH with Y60F
VL: B1 VL with A38H

Each binder was assayed against human PD1-6His (human) (assay: ELISA).
Sequence of human PD1-6His (human) (chain, as listed by the source): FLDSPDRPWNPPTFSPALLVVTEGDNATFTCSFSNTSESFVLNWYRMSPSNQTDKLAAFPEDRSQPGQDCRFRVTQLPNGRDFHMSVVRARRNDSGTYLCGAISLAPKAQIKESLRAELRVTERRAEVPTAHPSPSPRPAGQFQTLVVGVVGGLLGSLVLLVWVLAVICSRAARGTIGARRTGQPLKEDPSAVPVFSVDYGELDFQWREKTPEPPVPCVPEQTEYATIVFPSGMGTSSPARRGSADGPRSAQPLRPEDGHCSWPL

EC50 [nM] | Binder
0.11 | B1
0.088 | B2
0.065 | B3
0.093 | B4
